Results taken from paper PMC8914513, “Inhibition of Protein Kinase CK2 Affects Thymidylate Synthesis Cycle Enzyme Level and Distribution in Human Cancer Cells” (Frontiers in Molecular Biosciences, 2022).

B1: dihydrofolate reductase (DHFR), tagless ligand in QCM-D (enzyme, UniProt P00374 1-187, looked up)
chain: MVGSLNCIVAVSQNMGIGKNGDLPWPPLRNEFRYFQRMTTTSSVEGKQNLVIMGKKTWFSIPEKNRPLKGRINLVLSRELKEPPQGAHFLSRSLDDALKLTEQPELANKVDMVWIVGGSSVYKEAMNHPGHLKLFVTRIMQDFESDTFFPEIDLEKYKLLPEYPGVLSDVQEEKGIKYKFEVYEKND
notes: dihydrofolate reductase (DHFR); source: recombinant, overexpressed and purified as described previously (Antosiewicz et al., 2015; Skierka et al., 2019); His tag removed with Thrombin CleanCleave Kit
B2: dihydrofolate reductase (DHFR), fluorescently labeled, as used in MST (enzyme, UniProt P00374 1-187, looked up)
chain: B1 chain
modifications: fluorescently labeled (dye and site not stated)
notes: dihydrofolate reductase (DHFR); also called labeled DHFR; source: recombinant, overexpressed and purified as described previously (Antosiewicz et al., 2015; Skierka et al., 2019)
B3: serine hydroxymethyltransferase, cytosolic (SHMT1), as used in MST (enzyme, UniProt P34896 1-483, looked up)
chain: MTMPVNGAHKDADLWSSHDKMLAQPLKDSDVEVYNIIKKESNRQRVGLELIASENFASRAVLEALGSCLNNKYSEGYPGQRYYGGTEFIDELETLCQKRALQAYKLDPQCWGVNVQPYSGSPANFAVYTALVEPHGRIMGLDLPDGGHLTHGFMTDKKKISATSIFFESMPYKVNPDTGYINYDQLEENARLFHPKLIIAGTSCYSRNLEYARLRKIADENGAYLMADMAHISGLVAAGVVPSPFEHCHVVTTTTHKTLRGCRAGMIFYRKGVKSVDPKTGKEILYNLESLINSAVFPGLQGGPHNHAIAGVAVALKQAMTLEFKVYQHQVVANCRALSEALTELGYKIVTGGSDNHLILVDLRSKGTDGGRAEKVLEACSIACNKNTCPGDRSALRPSGLRLGTPALTSRGLLEKDFQKVAHFIHRGIELTLQIQSDTGVRATLKEFKERLAGDKYQAAVQALREEVESFASLFPLPGLPDF
modifications: fluorescently labeled in the SHMT-TS titration only; unlabeled titrant in the other MST experiments
notes: cytosolic serine hydroxymethyltransferase (SHMT1); Same preparation as m1; source: recombinant, overexpressed, purified (Ni-NTA, dialysis)
B4: serine hydroxymethyltransferase, cytosolic (SHMT1), His-tagged, immobilised in QCM-D (enzyme, UniProt P34896 1-483, looked up)
chain: B3 chain
notes: cytosolic serine hydroxymethyltransferase (SHMT1); Purified and stored with 50 uM pyridoxal phosphate; Captured by its His tag on the QSX340 sensor; also called His-tagged SHMT; His-tagged SHMT1; source: recombinant, overexpressed, purified (Ni-NTA, dialysis)

Assays:
Conditions in all cases: both partners purified
[1] = biological target: B4; experiment: QCM-D (quartz crystal microbalance with dissipation monitoring); two proteins: 5 uM His-tagged SHMT immobilised on His-tag capturing sensor QSX340; tagless ligand introduced (0.1-1.0 uM or 0.5-7.0 uM for TS, pTS or DHFR); 20 mM Tris-HCl pH 7.6, 100 mM (salt not given), 10 mM MgCl2, 0.05% Tween 20, 25 C, 200 ul/min; Langmuir isotherm fit
[2] = biological target: B3; experiment: MST; two proteins in solution, Premium capillaries: labeled DHFR with SHMT 157 uM-4.79 nM; labeled SHMT with TS 62.0 uM-1.9 nM; labeled pTS with SHMT 157 uM-4.79 nM; Kd model fit
[3] = biological target: T1, labeled DHFR with a constant concentration of TS (9.0 uM), MST tri-complex assay ( | human, UniProt P00374 1-187; P04818 1-313, fluorescently labeled (dye and site not stated)); experiment: MST; tri-complex: constant labeled DHFR and TS or pTS (9.0 uM), SHMT titrated 157 uM-4.79 nM; Kd model fit
T1 construct: dihydrofolate reductase (DHFR); human thymidylate synthase (TS); A mixture at constant concentrations, not a purified complex; also called DHFR/TS; source: purified recombinant proteins mixed: constant labeled DHFR and 9.0 uM TS

[4] = biological target: T2, labeled DHFR with a constant concentration of pTS (9.0 uM), MST tri-complex assay ( | human, UniProt P00374 1-187); P04818 1-313, fluorescently labeled (dye and site not stated) | phosphorylated in vitro by CK2alpha; residue not stated for this preparation (the introduction names serine 124 as the site of CK2-mediated …); experiment: as above
T2 construct: dihydrofolate reductase (DHFR); human thymidylate synthase (TS); A mixture at constant concentrations, not a purified complex; also called DHFR/pTS; source: purified recombinant proteins mixed: constant labeled DHFR and 9.0 uM pTS

[5] = biological target: T3, mixture of DHFR and pTS introduced together in the three-protein QCM-D assay ( | human, UniProt P00374 1-187; P04818 1-313, phosphorylated in vitro by CK2alpha; residue not stated for this preparation (the introduction names serine 124 as the site of CK2-mediated phosphorylation of human TS)); experiment: QCM-D (quartz crystal microbalance with dissipation monitoring); three proteins: 5 uM His-tagged SHMT1 immobilised on the sensor; mixture of fixed pTS (1.0 uM) and DHFR 0.25-2.0 uM introduced; 20 mM Tris-HCl pH 7.6, 100 mM (salt not given), 10 mM MgCl2, 0.05% Tween 20, 25 C, 200 ul/min; Langmuir isotherm fit
T3 construct: dihydrofolate reductase (DHFR); human thymidylate synthase (TS); A mixture, not a purified preformed complex; only the DHFR concentration was varied; also called DHFR/pTS; fixed pTS and variable DHFR; source: purified recombinant proteins mixed: pTS fixed at 1.0 uM, DHFR 0.25-2.0 uM
T3 sequence (P04818 whole entry, one chain of several): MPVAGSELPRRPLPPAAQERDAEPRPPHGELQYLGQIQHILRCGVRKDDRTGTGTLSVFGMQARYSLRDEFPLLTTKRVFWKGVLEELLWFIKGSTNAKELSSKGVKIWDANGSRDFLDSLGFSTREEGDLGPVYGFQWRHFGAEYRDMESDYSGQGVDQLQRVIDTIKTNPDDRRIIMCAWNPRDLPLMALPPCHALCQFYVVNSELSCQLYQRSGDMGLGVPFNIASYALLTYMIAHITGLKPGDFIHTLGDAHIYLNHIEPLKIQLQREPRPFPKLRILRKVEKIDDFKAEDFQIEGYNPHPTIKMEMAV

T1 sequence (P04818 whole entry, one chain of several): as above
T2 sequence (P04818 whole entry, one chain of several): as above

## B1
[1]
  Kd: 12.1 ± 7.86 µM

## B2
[2]
  Kd: 12.6 ± 0.66 µM

## B3
[3]
  Kd: 5.04 ± 0.5 µM
[4]
  Kd: 0.32 ± 0.05 µM

## B4
[5]
  Kd: 0.28 ± 0.23 µM
